Measurements taken from patent publication US20170246255.
Changes are numbered by the printed parent chain.

Legend:
[1] = biological target: T1, TLE-modified GLP-1 (7-37) analog
T1 chain: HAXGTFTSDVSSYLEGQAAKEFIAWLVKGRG

[2] = biological target: T2, GLP-1 (3DMA)
T2 chain: T1 chain

[3] = biological target: T3, GLP-1 (BM)
T3 chain: T1 chain

[4] = biological target: T4, GLP-1 (7-37)
T4 chain: T1 chain with X3E

B1: human DPP IV (protein)
chain: SRKTYTLTDYLKNTYRLKLYSLRWISDHEYLYKQENNILVFNAEYGNSSVFLENSTFDEFGHSINDYSISPDGQFILLEYNYVKQWRHSYTASYDIYDLNKRQLITEERIPNNTQWVTWSPVGHKLAYVWNNDIYVKIEPNLPSYRITWTGKEDIIYNGITDWVYEEEVFSAYSALWWSPNGTFLAYAQFNDTEVPLIEYSFYSDESLQYPKTVRVPYPKAGAVNPTVKFFVVNTDSLSSVTNATSIQITAPASMLIGDHYLCDVTWATQERISLQWLRRIQNYSVMDICDYDESSGRWNCLVARQHIEMSTTGWVGRFRPSEPHFTLDGNSFYKIISNEEGYRHICYFQIDKKDCTFITKGTWEVIGIEALTSDYLYYISNEYKGMPGGRNLYKIQLSDYTKVTCLSCELNPERCQYYSVSFSKEAKYYQLRCSGPGLPLYTLHSSVNDKGLRVLEDNSALDKMLQNVQMPSKKLDFIILNETKFWYQMILPPHFDKSKKYPLLLDVYAGPCSQKADTVFRLNWATYLASTENIIVASFDGRGSGYQGDKIMHAINRRLGTFEVEDQIEAARQFSKMGFVDNKRIAIWGWSYGGYVTSMVLGSGSGVFKCGIAVAPVSRWEYYDSVYTERYMGLPTPEDNLDHYRNSTVMSRAENFKQVEYLLIHGTADDNVHFQQSAQISKALVDVGVDFQAMWYTDEDHGIASSTAHQHIYTHMSHFIKQCFSLP
- cleavage of the peptide by the enzyme, HPLC/MS after two hours [1]: TLE-modified GLP-1 is resistant to degradation by DPP IV
- cleavage of the peptide by the enzyme, HPLC/MS [2]: both GLP-1 (3DMA) and GLP-1 (BM) were resistant to cleavage by DPP IV in comparison to native GLP-1
- cleavage of the peptide by the enzyme, HPLC/MS [3]: both GLP-1 (3DMA) and GLP-1 (BM) were resistant to cleavage by DPP IV in comparison to native GLP-1
- cleavage of the peptide by the enzyme, HPLC/MS after two hours [4]: treatment with DPP IV resulted in a time dependent degradation of GLP-1
